# Reference: patent publication US20070098706A1 (University of Texas, published 2007)
# T1: GST-NOXA1(SH3+) (human, UniProt Q86UR1 1-476)
# T1 construct: the vector-encoded linker is not described; Immobilised on GSH-Sepharose; not shown: glutathione-S-transferase (GST) encoded by vector pGEX-3X
# T1 sequence: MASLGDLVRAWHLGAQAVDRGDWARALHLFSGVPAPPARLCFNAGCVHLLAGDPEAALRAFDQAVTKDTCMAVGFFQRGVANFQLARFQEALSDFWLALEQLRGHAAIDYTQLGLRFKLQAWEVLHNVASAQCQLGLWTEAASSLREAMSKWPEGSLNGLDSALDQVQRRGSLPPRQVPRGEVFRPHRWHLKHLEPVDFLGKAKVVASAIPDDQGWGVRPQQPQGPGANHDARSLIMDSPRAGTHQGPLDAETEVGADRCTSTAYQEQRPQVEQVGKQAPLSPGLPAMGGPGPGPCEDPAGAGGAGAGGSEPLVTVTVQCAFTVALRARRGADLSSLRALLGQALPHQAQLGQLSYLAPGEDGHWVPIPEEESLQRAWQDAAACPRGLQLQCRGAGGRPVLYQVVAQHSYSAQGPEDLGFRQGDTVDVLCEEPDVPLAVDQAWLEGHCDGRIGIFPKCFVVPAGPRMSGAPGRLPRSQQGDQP
# B1: human p47^phox (other, UniProt P14598 1-390, looked up)
# chain: MGDTFIRHIALLGFEKRFVPSQHYVYMFLVKWQDLSEKVVYRRFTEIYEFHKTLKEMFPIEAGAINPENRIIPHLPAPKWFDGQRAAENRQGTLTEYCSTLMSLPTKISRCPHLLDFFKVRPDDLKLPTDNQTKKPETYLMPKDGKSTATDITGPIILQTYRAIANYEKTSGSEMALSTGDVVEVVEKSESGWWFCQMKAKRGWIPASFLEPLDSPDETEDPEPNYAGEPYVAIKAYTAVEGDEVSLLEGEAVEVIHKLLDGWWVIRKDDVTGYFPSMYLQKSGQDVSQAQRQIKRGAPPRRSSIRNAHSIHQRSRKRLSQDAYRRNSVRFLQQRRRQARPGPQSPGSPLEEERQTQRSKPQPAVPPRPSADLILNRCSESTKRKLASAV
# modifications: labeled in vitro with [35S]-methionine/[35S]-cysteine
# notes: no residue limits are printed
# B2: MBP-NOXO1(288-370) (other, human, UniProt Q8NFA2 294-376, looked up, not shown: large carriers)
# chain: EGLGALLSGTGFRGGDDPAGEARGFPEPSQATAPPPTVPTRPSPGAIQSRCCTVTRRALERRPRRQGRPRGCVDSVPHPTTEQ
# modifications: labeled in vitro with [35S]-methionine/[35S]-cysteine
# notes: range 294-376; Cloned at the SacI/XhoI sites of pET23bMBPH6 in frame with MBP; linker and any vector tag are not described; Made by in vitro coupled transcription/translation; also called NBP-NOXO1(288-370)
# B3: GST-(SH3)+ (other)
# chain: RGLQLQCRGAGGRPVLYQVVAQHSYSAQGPEDLGFRQGDTVDVLCEEPDVPLAVDQAWLEGHCDGRIGIFPKCFVVPAGPRMSGAPGRLPRSQQGDQP
# notes: Cloned at the EcoRI site of pGEX-3X in frame with GST; the linker is not described; also called fusion protein of GST and the C-terminal NOXA1(SH3+) polypeptide; not shown: glutathione-S-transferase (GST) encoded by vector pGEX-3X
# Assays:
# [1] = target: T1, GST-NOXA1(SH3+); assay: GST pull-down of 35S-labelled p47phox, SDS-PAGE and fluorography
# Method: (§1) Binding interactions are carried out between GST, GST-NOXA1, GST-NOXA1_{SH3+)}, GST-(SH3wt) and GST-(SH3+) fusion proteins immobilized on GSH-Sepharose, and the in vitro synthesized [³⁵S]-labeled target proteins. Volumes of fusion protein bacterial lysates, previously determined to give equal loading of the GSH-Sepharose, are mixed for 5 min at room temperature with 250 μl of a 50% suspension of washed GSH-Sepharose in PBS (137 mM NaCl, 2.68 mM KCl, […] Na2HPO4, pH 7.3). The suspension is washed twice and resuspended to 500 μl in PBS with 10 mM DTT. Human NOX1, NOX2, p47^phox and MBP-NOXO1₍₂₈₈₋₃₇₀₎ are synthesized and labeled in vitro with [³⁵S]-methlionine/[³⁵S]-cysteine (Redivue Pro-mix L-[³⁵S] labeling mix, Amersham Biosciences, Inc. # AGQ0080) using the TNT® Coupled Reticulocyte Lysate System (Promega) and T7 RNA polymerase. A 24 μl aliquot of the labeling reaction is mixed with 476 μl of the resuspended immobilized GST fusion protein for 15 min at room temperature. The gel pellet is washed 4X with 500 μl of PBS/10 mM DTT/0.05% Triton X-100. […] The entire volume of the denatured samples is separated on 9% SDS-PAGE and analyzed by fluorography. A sample of the original binding gel is analyzed by denaturing SDS-PAGE and Coomassie staining to confirnm the loading of the GST proteins. […]
# [2] = target: B3; assay: GST pull-down of 35S-labelled MBP-NOXO1(288-370) with isolated SH3-containing polypeptides
# Method: as §1
# [3] = target: T1, GST-NOXA1(SH3+); assay: GST pull-down of 35S-labelled MBP-NOXO1(288-370), SDS-PAGE and fluorography
# Method: as §1
# [4] = target: B1; assay: GST pull-down of 35S-labelled p47phox with isolated SH3-containing polypeptides
# Method: as §1
binder,measurement,setting,value
B1,binding result,[1],no binding
B2,binding result,[2],no binding
same,binding result,[3],no binding
B3,binding result,[4],no binding
